{
  "source": "patent EP2329839B1",
  "key": {"[1]": {"biological_target": "MC3-R (mouse arcuate nucleus) (mouse) (UniProt P33033)", "sequence (P33033 whole entry)": "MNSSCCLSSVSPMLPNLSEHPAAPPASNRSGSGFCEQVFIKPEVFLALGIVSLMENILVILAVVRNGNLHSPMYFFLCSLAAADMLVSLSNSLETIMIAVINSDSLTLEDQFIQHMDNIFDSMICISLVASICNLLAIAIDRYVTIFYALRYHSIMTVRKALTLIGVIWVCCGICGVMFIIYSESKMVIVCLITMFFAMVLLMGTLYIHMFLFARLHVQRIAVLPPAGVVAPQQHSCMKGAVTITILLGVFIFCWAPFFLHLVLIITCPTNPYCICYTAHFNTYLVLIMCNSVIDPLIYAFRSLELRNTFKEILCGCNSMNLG", "experiment": "cell-based or functional assay"}, "[2]": {"biological_target": "µ opioid receptor (MOP-R) on mouse POMC neurons (mouse) (UniProt P42866)", "sequence (P42866 whole entry)": "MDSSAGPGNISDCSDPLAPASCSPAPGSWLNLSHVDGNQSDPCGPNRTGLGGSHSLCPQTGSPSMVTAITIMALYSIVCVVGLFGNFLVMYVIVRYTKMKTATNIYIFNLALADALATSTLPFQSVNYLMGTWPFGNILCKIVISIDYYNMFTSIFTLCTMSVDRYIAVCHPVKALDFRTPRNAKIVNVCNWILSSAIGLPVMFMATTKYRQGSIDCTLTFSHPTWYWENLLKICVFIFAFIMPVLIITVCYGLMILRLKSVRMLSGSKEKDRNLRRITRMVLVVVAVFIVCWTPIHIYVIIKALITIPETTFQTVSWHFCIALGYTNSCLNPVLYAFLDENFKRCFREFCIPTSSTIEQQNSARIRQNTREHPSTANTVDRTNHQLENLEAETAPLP", "experiment": "cell-based or functional assay"}, "[3]": {"biological_target": "T1, NPY Y2 receptor (on cell lines expressing it)", "T1 sequence (P49146 whole entry, species assumed, looked up)": "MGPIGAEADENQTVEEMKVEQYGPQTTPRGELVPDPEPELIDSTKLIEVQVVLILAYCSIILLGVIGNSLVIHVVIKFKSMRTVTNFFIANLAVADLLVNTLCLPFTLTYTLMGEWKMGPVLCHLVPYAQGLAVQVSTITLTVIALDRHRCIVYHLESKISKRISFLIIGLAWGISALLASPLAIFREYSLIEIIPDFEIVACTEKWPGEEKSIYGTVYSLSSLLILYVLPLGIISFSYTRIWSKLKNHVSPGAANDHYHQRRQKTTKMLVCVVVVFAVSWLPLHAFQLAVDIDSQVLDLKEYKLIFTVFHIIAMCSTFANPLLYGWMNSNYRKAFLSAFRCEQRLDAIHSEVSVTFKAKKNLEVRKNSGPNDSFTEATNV", "experiment": "receptor-binding studies on cell lines expressing the NPY Y2 receptor; labelled ligand not named"}},
  "note": "Several values for one entry are separate records, joined by “and”; a condition that tells them apart may be missing. Identical values can stand only once. Where no end group is shown, it is not given here.",
  "data": [
    {"molecule": "D-Trp^8-γMSH (peptide)", "values": [
      {"measurement": "frequency of GABAergic IPSCs recorded from POMC neurons", "setting": "[1]", "result": 280, "unit": "%"}
    ]},
    {"molecule": "met-enkephalin (peptide)", "values": [
      {"measurement": "hyperpolarization of the membrane potential of POMC cells (whole cell recording, mouse slices)", "setting": "[2]", "result": "10 mV and 20 mV"}
    ]},
    {"molecule": "Ac-LRHYLNLLTRQRY (ends and bridges not checked)", "note": "[N-acetyl (Leu^28, Leu^31) NPY (24-36)]", "values": [
      {"measurement": "IC50", "setting": "[3]", "result": 1.3, "unit": "nM"}
    ]}
  ]
}
